Assay results published in patent US20190169637A1.
Blank lines part the entries; values can stand above or below the substance they belong to.

Tests used:
[1] = test system: Sleeping Beauty transposase SB100X (hyperactive) (synthetic construct (reconstructed Tc1-like fish transposon)); assay: cell_activity; details: day 14, CD8+ T cells, n=7
[2] = biological target: CD19 (UniProt P15391); assay: cell-based or functional assay
Sequence of UniProt P15391 (P15391 20-556 limits assumed): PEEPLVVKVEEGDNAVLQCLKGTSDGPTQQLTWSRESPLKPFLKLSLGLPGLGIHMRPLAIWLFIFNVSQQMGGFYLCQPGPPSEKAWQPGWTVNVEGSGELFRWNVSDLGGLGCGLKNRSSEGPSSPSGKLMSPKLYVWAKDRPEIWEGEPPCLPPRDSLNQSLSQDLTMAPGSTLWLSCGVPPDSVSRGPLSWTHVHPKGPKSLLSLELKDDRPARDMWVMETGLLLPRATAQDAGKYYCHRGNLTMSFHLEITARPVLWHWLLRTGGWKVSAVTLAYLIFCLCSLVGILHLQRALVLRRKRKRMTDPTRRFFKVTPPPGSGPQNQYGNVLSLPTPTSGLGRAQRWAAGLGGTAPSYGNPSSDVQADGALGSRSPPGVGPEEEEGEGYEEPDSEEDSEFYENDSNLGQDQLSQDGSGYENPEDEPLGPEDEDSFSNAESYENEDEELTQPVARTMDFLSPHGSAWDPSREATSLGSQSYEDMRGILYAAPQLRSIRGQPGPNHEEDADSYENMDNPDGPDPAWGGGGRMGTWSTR

Substance: CD19-CAR_EGFRt transposon in pT2/HB minicircle
activity (% EGFRt+ cells) ([1]; SB100X from minicircle): 49.8

Substance: CD19-CAR_EGFRt transposon in pT2/HB plasmid
activity (% EGFRt+ cells) ([1]; SB100X from plasmid): 12.8

proliferation by CFSE dilution (cell divisions in 72 hours) [2]: > 3
Substance: CD19-CAR (FMC63 targeting domain, IgG4-Fc Hinge spacer, CD3zeta and 4-1BB costimulation) (from UniProt P01861 99-110; Q07011 214-255; P20963 52-163)
